Substitutions are numbered along the chain they refer to. Blank lines part the entries; values can stand above or below the binder they belong to.
Legend:
[1] = molecular target: anti-VEGF/ANG2 antibody (wild-type IgG1 subclass) (human) [IgG part: P01857]; assay: sandwich ELISA assay C; capture on SA plate; tracer FcγRI-Dig; analyte 13 ng/mL
[2] = molecular target: target antibodies; assay: depletion of target antibody from sample; concentration before depletion 1000.00 µg/mL
[3] = molecular target: anti-VEGF/ANG2 antibody (wild-type IgG1 subclass) (human) [IgG part: P01857]; assay: sandwich ELISA assay B; capture on SA plate; tracer M1.7.10-Dig; analyte 25 ng/mL
[4] = molecular target: anti-VEGF/ANG2 antibody (wild-type IgG1 subclass) (human) [IgG part: P01857]; assay: sandwich ELISA assay B; capture on SA plate; tracer M1.7.10-Dig; analyte 6 ng/mL
[5] = molecular target: anti-VEGF/ANG2 antibody (wild-type IgG1 subclass) (human) [IgG part: P01857]; assay: sandwich ELISA assay C; capture on SA plate; tracer FcγRI-Dig; analyte 50 ng/mL
[6] = molecular target: anti-VEGF/ANG2 antibody (wild-type IgG1 subclass) (human) [IgG part: P01857]; assay: sandwich ELISA assay B; capture on SA plate; tracer M1.7.10-Dig; analyte 3 ng/mL
[7] = molecular target: anti-VEGF/ANG2 antibody (wild-type IgG1 subclass) (human) [IgG part: P01857]; assay: sandwich ELISA assay B; capture on SA plate; tracer M1.7.10-Dig; analyte 0 ng/mL (blank)
[8] = molecular target: target antibodies; assay: depletion of target antibody from sample; concentration before depletion 10.00 µg/mL
[9] = molecular target: anti-VEGF/ANG2 antibody (wild-type IgG1 subclass) (human) [IgG part: P01857]; assay: sandwich ELISA assay B; capture on SA plate; tracer M1.7.10-Dig; analyte 2 ng/mL
[10] = molecular target: anti-Dig antibody (IgG1 subclass with mutations P329G/L234A/L235A) [IgG part: P01857]; assay: sandwich ELISA assay D; tracer M1.7.10-Dig; analyte conc. not printed (row 4 of 8)
[11] = molecular target: anti-Dig antibody (IgG1 subclass with mutations P329G/L234A/L235A) [IgG part: P01857]; assay: sandwich ELISA assay D; tracer M1.19.31-Dig; analyte conc. not printed (row 3 of 8)
[12] = molecular target: anti-Dig antibody (IgG1 subclass with mutations P329G/L234A/L235A) [IgG part: P01857]; assay: sandwich ELISA assay D; tracer M1.19.31-Dig; analyte conc. not printed (row 2 of 8)
[13] = molecular target: anti-VEGF/ANG2 antibody (IgG1 subclass with mutations P329G/L234A/L235A) [IgG part: P01857]; assay: sandwich ELISA assay E; tracer M1.7.10-Dig; analyte 2) at 50 ng/mL
[14] = molecular target: anti-Dig antibody (IgG1 subclass with mutations P329G/L234A/L235A) [IgG part: P01857]; assay: sandwich ELISA assay D; tracer M1.7.10-Dig; analyte conc. not printed (row 7 of 8)
[15] = molecular target: anti-VEGF/ANG2 antibody (IgG1 subclass with mutations P329G/L234A/L235A/I253A/H310A/H435A) [IgG part: P01857]; assay: sandwich ELISA assay E; tracer M1.7.10-Dig; analyte 1) at 12.5 ng/mL
[16] = molecular target: anti-VEGF/ANG2 antibody (IgG1 subclass with mutations P329G/L234A/L235A) [IgG part: P01857]; assay: sandwich ELISA assay E; tracer M1.7.10-Dig; analyte 2) at 3.124 ng/mL
[17] = molecular target: anti-Dig antibody (IgG1 subclass with mutations P329G/L234A/L235A) [IgG part: P01857]; assay: sandwich ELISA assay D; tracer M1.7.10-Dig; analyte conc. not printed (row 8 of 8)
[18] = molecular target: anti-Dig antibody (IgG1 subclass with mutations P329G/L234A/L235A) [IgG part: P01857]; assay: sandwich ELISA assay D; tracer M1.7.10-Dig; analyte conc. not printed (row 6 of 8)
[19] = molecular target: anti-VEGF/ANG2 antibody (IgG1 subclass with mutations P329G/L234A/L235A) [IgG part: P01857]; assay: sandwich ELISA assay E; tracer M1.7.10-Dig; analyte 2) at 1.5625 ng/mL
[20] = molecular target: anti-VEGF/ANG2 antibody (IgG1 subclass with mutations P329G/L234A/L235A) [IgG part: P01857]; assay: sandwich ELISA assay E; tracer M1.7.10-Dig; analyte 2) at 12.5 ng/mL
[21] = molecular target: anti-VEGF/ANG2 antibody (IgG1 subclass with mutations P329G/L234A/L235A/I253A/H310A/H435A) [IgG part: P01857]; assay: sandwich ELISA assay E; tracer M1.7.10-Dig; analyte 1) at 3.124 ng/mL
[22] = molecular target: anti-Dig antibody (IgG1 subclass with mutations P329G/L234A/L235A) [IgG part: P01857]; assay: sandwich ELISA assay D; tracer M1.7.10-Dig; analyte conc. not printed (row 1 of 8)
[23] = molecular target: anti-VEGF/ANG2 antibody (IgG1 subclass with mutations P329G/L234A/L235A) [IgG part: P01857]; assay: sandwich ELISA assay E; tracer M1.7.10-Dig; analyte 2) at 100 ng/mL
[24] = molecular target: anti-VEGF/ANG2 antibody (IgG1 subclass with mutations P329G/L234A/L235A) [IgG part: P01857]; assay: sandwich ELISA assay E; tracer M1.7.10-Dig; analyte 2) at 6.25 ng/mL
[25] = molecular target: anti-VEGF/ANG2 antibody (IgG1 subclass with mutations P329G/L234A/L235A/I253A/H310A/H435A) [IgG part: P01857]; assay: sandwich ELISA assay E; tracer M1.7.10-Dig; analyte 1) at 1.5625 ng/mL

signal [OD405 nm] [1]: 0.07 OD405 nm | concentration after depletion [2]: 0.0163 µg/mL | recovery [%] [2]: 0.002% | signal [OD405 nm] [3]: 0.047 OD405 nm | signal [OD405 nm] [4]: 0.039 OD405 nm | signal [OD405 nm] [5]: 0.067 OD405 nm | signal [OD405 nm] [6]: 0.037 OD405 nm | signal [OD405 nm] [7]: 0.037 OD405 nm | concentration after depletion [8]: 0.0005 µg/mL | recovery [%] [8]: 0.005% | signal [OD405 nm] [9]: 0.036 OD405 nm
B1: anti-AAA variant Fc-region antibody M1.6.22 (antibody, V domains shown)
VH: EVQLVESGGDLVKPGGSLKLSCAASGFTFSSYGMSWVRQTPDKRLEWVATISSGGSYIYYPDSVKGRFTISRDNAKNTLYLQMSSLKSEDTAMYYCARLGMITTGYAMDYWGQGTSVTVSS
VL: DVLMTQTPLSLPVSLGDQASISCRSSQTIVHSTGHTYLEWFLQKPGQSPKLLIYKVSNRFSGVPDRFSGSGSGTDFTLKISRVEAEDLGVYYCFQGSHVPYTFGGGTKLEIK

signal 10% cynomolgus serum [OD405 nm] [10]: 0.194 OD405 nm | signal 10% human serum [OD405 nm] [10]: 2.48 OD405 nm | signal buffer [OD405 nm] [10]: 0.032 OD405 nm | signal 10% cynomolgus serum [OD405 nm] [11]: 0.357 OD405 nm | signal 10% human serum [OD405 nm] [11]: 1.84 OD405 nm | signal buffer [OD405 nm] [11]: 0.04 OD405 nm | signal 10% cynomolgus serum [OD405 nm] [12]: 0.872 OD405 nm | signal 10% human serum [OD405 nm] [12]: 2.14 OD405 nm | signal buffer [OD405 nm] [12]: 0.041 OD405 nm | concentration after depletion [2]: 0.0169 µg/mL | recovery [%] [2]: 0.002% | signal [OD405 nm] [13]: 1.89 OD405 nm | signal 10% cynomolgus serum [OD405 nm] [14]: 0.052 OD405 nm | signal 10% human serum [OD405 nm] [14]: 2.53 OD405 nm | signal buffer [OD405 nm] [14]: 0.029 OD405 nm | signal [OD405 nm] [15]: 1.09 OD405 nm | signal [OD405 nm] [16]: 0.316 OD405 nm | signal 10% cynomolgus serum [OD405 nm] [17]: 0.044 OD405 nm | signal 10% human serum [OD405 nm] [17]: 2.51 OD405 nm | signal buffer [OD405 nm] [17]: 0.031 OD405 nm | signal 10% cynomolgus serum [OD405 nm] [18]: 0.065 OD405 nm | signal 10% human serum [OD405 nm] [18]: 2.53 OD405 nm | signal buffer [OD405 nm] [18]: 0.032 OD405 nm | signal [OD405 nm] [19]: 0.187 OD405 nm | signal [OD405 nm] [20]: 0.96 OD405 nm | signal [OD405 nm] [21]: 0.383 OD405 nm | signal 10% cynomolgus serum [OD405 nm] [22]: 2.12 OD405 nm | signal 10% human serum [OD405 nm] [22]: 2.66 OD405 nm | signal buffer [OD405 nm] [22]: 0.053 OD405 nm | signal [OD405 nm] [23]: 2.27 OD405 nm | signal [OD405 nm] [24]: 0.577 OD405 nm | concentration after depletion [8]: 0.0017 µg/mL | recovery [%] [8]: 0.017% | signal [OD405 nm] [25]: 0.224 OD405 nm
B2: anti-variant (human) Fc-region antibody M1.3.17 (antibody, V domains shown)
VH: EVKLLESGGGLVQPGGSLKLSCAASGIDFRRYWMNWVRQAPGKGLEWIGEIDPDSSTINYTPSLKDKFIISRDNAKNTMYLQMRKVRSEDTALYYCARPYDYGAWFAYWGQGTLVTVSA
VL: QAVVTQESALTTSPGETVTLTCRSTTGAVTTSNYANWVQEKPDHLFTGLIGGTNKRAPGVPARFSGSLIGDKAALTITGAQTEDEAIYFCALWYSDHWVFGGGTKLTVL

signal 10% cynomolgus serum [OD405 nm] [10]: 0.223 OD405 nm | signal 10% human serum [OD405 nm] [10]: 2.46 OD405 nm | signal buffer [OD405 nm] [10]: 0.034 OD405 nm | signal 10% cynomolgus serum [OD405 nm] [11]: 0.438 OD405 nm | signal 10% human serum [OD405 nm] [11]: 1.6 OD405 nm | signal buffer [OD405 nm] [11]: 0.045 OD405 nm | signal [OD405 nm] [1]: 0.057 OD405 nm | signal 10% cynomolgus serum [OD405 nm] [12]: 1.17 OD405 nm | signal 10% human serum [OD405 nm] [12]: 2.04 OD405 nm | signal buffer [OD405 nm] [12]: 0.051 OD405 nm | signal [OD405 nm] [13]: 1.8 OD405 nm | signal 10% cynomolgus serum [OD405 nm] [14]: 0.041 OD405 nm | signal 10% human serum [OD405 nm] [14]: 2.44 OD405 nm | signal buffer [OD405 nm] [14]: 0.034 OD405 nm | signal [OD405 nm] [15]: 1.06 OD405 nm | signal [OD405 nm] [3]: 0.041 OD405 nm | signal [OD405 nm] [16]: 0.298 OD405 nm | signal 10% cynomolgus serum [OD405 nm] [17]: 0.031 OD405 nm | signal 10% human serum [OD405 nm] [17]: 2.45 OD405 nm | signal buffer [OD405 nm] [17]: 0.033 OD405 nm | signal 10% cynomolgus serum [OD405 nm] [18]: 0.05 OD405 nm | signal 10% human serum [OD405 nm] [18]: 2.4 OD405 nm | signal buffer [OD405 nm] [18]: 0.031 OD405 nm | signal [OD405 nm] [19]: 0.172 OD405 nm | signal [OD405 nm] [20]: 0.884 OD405 nm | signal [OD405 nm] [4]: 0.038 OD405 nm | signal [OD405 nm] [5]: 0.066 OD405 nm | signal [OD405 nm] [21]: 0.363 OD405 nm | signal 10% cynomolgus serum [OD405 nm] [22]: 2.37 OD405 nm | signal 10% human serum [OD405 nm] [22]: 2.74 OD405 nm | signal buffer [OD405 nm] [22]: 0.062 OD405 nm | signal [OD405 nm] [6]: 0.033 OD405 nm | signal [OD405 nm] [7]: 0.039 OD405 nm | signal [OD405 nm] [23]: 2.22 OD405 nm | signal [OD405 nm] [24]: 0.528 OD405 nm | signal [OD405 nm] [25]: 0.208 OD405 nm | signal [OD405 nm] [9]: 0.034 OD405 nm
B3: anti-variant (human) Fc-region antibody M1.7.24 (antibody, V domains shown)
VH: B2 VH with I27F, R30S, D52T, M79L, R84I, A97V, Y108S
VL: B2 VL with T25S, D96N

— patent US20180346602A1
